In PMC4509971:

Biological target: RNH domain of HIV-1 reverse transcriptase (RT residues 427-560) with E438N and T477A (HIV-1)
Assay: SEC-MALS

RNH domain of HIV-1 reverse transcriptase (RT residues 427-560) with E438N and T477A (domain or fragment)
stoichiometry N: 2
